In the experiment the target is GDP-bound KRAS4b-farnesyl (farnesylated, not carboxy-methylated) (UniProt P01116). Kind of experiment: ITC. In general terms: ITC needs no label: the signal is the heat of the interaction.

Experimental findings from publication PMC6428923 are described below.

The term Kd denotes the free concentration of one partner at which half of the binding sites on the other are occupied at equilibrium, for simple one-to-one binding.

The substance “calmodulin (CaM), full-length, amino acids 2-148 (from UniProt P0DP23 2-148) (natural protein)” had a Kd of 1.5 µM.
